B1: A2L (VHH)
VHH: QVQLQQSGGGLVQAGGSLRLSCAASGRFFSRQVMGWFRQAPGKDREFVGVISWDNGVTFYSDSVKGRFTMSREIAKKTVHLQMNSLKPEDTAVYYCAAGNALHSRYYSPSKYDYWGPGTQVTVSS
notes: also called sdAb A2
B2: A7L (VHH)
VHH: QVQLQQSGGGLVQAGDSLRLSCAASGRAFNYYTMGWFRQAPGKEREFVAKIYWDGGSTIYADSVKGRFTISIDNAKNTVYLQMNSLKPEDTAVYYCAADPSFYPFRPKYWGQGTQVTVSS
notes: also called sdAb A7
B3: A6L (VHH)
VHH: QVQLQESGGRLVQAEDSLRLSCAASGRTFVSYDMGWFRQAPGKEREFVAAINWRGYTTDYVDSVKGRFFISRDIAKSTVYLQMNNLKPEDTAVYYCAARQMSGSSRYSPPGRVGYDFWGQGTQVTVSS
notes: also called sdAb A6
B4: A12L (VHH)
VHH: QVQLQESGGGLVQAGGSLRLSCAASGRTFSYYPMAWFRQAPGQEREFVAAIIGADTTYYADSLKGRFTISRDNAKNMVYLQMNSLKPEDTAVYYCAARNTYWSDVYYREGQYTNWGQGTQVTVSS
notes: also called sdAb A12
B5: A16L (VHH)
VHH: QVQLQESGGGVVQAGGSLRLSCAASGRTVSSSAMGWFRLAPGKEREFVVGISRSGGSIFYADSVKGRFTISRKNAKNTVDLQMNSLKPEDTAVYYCAAGYRPGYGDYGRVFYREDEYDDWGQGTQVTVSS
notes: also called sdAb A16

How the values were obtained:
Conditions in all cases: both partners purified
horse albumin [1] = target: T1, horse albumin (Equus caballus, UniProt P35747); assay: ELISA; […], pH 7.4); room temperature; […]
cat albumin [2] = target: T2, cat albumin (Felis catus, UniProt P49064); assay: ELISA; […], pH 7.4); room temperature; […]
human albumin = target: T3, human albumin (Homo sapiens, UniProt P02768); assay: ELISA; […], pH 7.4); room temperature; […]
T3 construct: also called HSA

bovine albumin = bovine albumin (Bos taurus, UniProt P02769); assay: ELISA; […], pH 7.4); room temperature; […]
sheep albumin = sheep albumin (Ovis aries, UniProt P14639); assay: ELISA; […], pH 7.4); room temperature; […]
[3] = target: T4, natural protein of Sus scrofa P08835 (Sus scrofa, UniProt P08835); assay: ELISA; […], pH 7.4); room temperature; […]
T4 construct: also called Sw

mouse albumin = mouse albumin (Mus musculus, UniProt P07724); assay: ELISA; […], pH 7.4); room temperature; […]
chicken ovalbumin = chicken ovalbumin (Gallus gallus, UniProt P01012); assay: ELISA; […], pH 7.4); room temperature; […]
horse albumin [4] = target: T1, horse albumin
cat albumin [5] = target: T2, cat albumin
[6] = target: T4, natural protein of Sus scrofa P08835

T2 sequence (P49064 25-608): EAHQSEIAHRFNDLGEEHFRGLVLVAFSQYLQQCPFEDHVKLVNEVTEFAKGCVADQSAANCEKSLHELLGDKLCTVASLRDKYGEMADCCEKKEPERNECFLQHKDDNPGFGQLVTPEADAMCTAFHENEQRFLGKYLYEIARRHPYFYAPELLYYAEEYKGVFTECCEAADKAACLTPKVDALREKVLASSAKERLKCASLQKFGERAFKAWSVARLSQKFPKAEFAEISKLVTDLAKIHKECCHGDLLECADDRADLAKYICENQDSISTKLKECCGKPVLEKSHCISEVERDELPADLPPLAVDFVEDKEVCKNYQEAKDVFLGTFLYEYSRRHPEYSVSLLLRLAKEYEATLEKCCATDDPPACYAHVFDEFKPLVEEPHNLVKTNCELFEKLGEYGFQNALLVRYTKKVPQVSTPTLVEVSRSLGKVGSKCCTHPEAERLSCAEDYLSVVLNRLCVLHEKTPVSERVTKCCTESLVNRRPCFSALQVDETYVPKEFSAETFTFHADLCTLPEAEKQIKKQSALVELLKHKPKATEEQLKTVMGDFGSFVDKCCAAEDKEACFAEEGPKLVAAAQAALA
T4 sequence (P08835 25-607, one chain of several): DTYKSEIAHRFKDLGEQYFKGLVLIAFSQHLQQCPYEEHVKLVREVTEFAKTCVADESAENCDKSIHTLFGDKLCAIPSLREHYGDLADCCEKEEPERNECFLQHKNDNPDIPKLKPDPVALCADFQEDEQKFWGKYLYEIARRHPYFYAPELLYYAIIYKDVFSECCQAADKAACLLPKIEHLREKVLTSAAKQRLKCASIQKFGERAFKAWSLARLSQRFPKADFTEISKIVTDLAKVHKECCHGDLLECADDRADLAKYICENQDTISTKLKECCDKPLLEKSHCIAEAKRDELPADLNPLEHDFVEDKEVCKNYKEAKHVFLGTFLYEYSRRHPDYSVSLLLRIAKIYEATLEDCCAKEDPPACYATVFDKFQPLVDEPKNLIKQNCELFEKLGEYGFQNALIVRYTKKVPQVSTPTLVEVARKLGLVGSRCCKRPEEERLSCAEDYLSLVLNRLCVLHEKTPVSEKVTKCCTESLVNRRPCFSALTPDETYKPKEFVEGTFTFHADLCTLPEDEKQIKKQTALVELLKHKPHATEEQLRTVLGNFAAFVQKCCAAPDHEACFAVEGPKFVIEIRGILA
T1 sequence (P35747 25-607): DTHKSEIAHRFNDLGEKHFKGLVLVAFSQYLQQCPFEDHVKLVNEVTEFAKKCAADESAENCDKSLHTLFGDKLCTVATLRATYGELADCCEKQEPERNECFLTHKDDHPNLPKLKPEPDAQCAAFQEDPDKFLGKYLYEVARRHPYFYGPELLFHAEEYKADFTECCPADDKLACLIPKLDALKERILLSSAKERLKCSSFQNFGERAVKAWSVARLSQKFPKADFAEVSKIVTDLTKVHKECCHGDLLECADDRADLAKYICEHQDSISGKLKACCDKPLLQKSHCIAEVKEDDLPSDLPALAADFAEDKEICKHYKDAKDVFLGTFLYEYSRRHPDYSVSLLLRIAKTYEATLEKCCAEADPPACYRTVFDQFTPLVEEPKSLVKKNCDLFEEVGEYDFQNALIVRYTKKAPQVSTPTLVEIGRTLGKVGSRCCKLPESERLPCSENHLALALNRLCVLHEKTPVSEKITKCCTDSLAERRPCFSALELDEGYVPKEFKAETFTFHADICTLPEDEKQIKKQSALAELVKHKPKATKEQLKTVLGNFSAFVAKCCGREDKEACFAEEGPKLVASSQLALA
chicken ovalbumin, sequence (P01012 whole entry): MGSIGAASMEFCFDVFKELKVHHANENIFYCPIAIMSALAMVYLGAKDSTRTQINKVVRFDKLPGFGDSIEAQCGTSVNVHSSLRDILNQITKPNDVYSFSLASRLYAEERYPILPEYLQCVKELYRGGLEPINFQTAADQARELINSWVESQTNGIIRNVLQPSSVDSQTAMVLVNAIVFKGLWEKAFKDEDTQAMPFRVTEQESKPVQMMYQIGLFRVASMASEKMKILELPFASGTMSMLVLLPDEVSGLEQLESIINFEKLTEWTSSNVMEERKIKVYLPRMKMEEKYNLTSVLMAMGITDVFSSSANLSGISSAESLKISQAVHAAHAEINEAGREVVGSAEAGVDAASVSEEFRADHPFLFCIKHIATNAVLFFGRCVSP
T3 sequence (P02768 25-609): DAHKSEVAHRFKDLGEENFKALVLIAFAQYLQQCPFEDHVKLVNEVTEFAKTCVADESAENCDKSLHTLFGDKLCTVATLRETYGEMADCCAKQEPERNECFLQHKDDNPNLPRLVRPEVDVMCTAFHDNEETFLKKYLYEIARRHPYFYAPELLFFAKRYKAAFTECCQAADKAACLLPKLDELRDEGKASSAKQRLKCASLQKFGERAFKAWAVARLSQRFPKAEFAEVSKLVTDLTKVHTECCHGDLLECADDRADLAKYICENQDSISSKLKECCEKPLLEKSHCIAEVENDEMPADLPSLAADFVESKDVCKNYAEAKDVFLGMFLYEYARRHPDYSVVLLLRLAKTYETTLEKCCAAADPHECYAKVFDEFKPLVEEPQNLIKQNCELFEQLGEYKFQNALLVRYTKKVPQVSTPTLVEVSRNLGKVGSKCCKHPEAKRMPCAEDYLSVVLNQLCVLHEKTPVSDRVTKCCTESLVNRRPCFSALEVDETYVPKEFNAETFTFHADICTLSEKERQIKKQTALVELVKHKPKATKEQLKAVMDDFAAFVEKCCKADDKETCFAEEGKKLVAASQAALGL
mouse albumin, sequence (P07724 25-608): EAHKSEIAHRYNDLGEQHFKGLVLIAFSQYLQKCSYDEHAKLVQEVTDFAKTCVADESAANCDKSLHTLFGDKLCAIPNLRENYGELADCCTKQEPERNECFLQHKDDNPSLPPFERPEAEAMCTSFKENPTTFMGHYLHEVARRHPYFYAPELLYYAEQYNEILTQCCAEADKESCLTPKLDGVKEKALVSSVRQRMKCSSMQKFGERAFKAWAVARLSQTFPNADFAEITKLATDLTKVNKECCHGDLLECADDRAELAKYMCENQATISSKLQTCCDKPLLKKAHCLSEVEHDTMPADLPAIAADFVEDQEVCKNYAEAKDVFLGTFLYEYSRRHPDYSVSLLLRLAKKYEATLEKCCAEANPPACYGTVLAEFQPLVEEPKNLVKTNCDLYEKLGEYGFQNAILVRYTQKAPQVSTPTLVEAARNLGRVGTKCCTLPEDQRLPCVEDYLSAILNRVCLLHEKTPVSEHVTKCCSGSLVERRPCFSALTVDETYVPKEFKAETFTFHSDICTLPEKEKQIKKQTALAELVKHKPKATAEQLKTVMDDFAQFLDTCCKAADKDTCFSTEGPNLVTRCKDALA
sheep albumin, sequence (P14639 25-607): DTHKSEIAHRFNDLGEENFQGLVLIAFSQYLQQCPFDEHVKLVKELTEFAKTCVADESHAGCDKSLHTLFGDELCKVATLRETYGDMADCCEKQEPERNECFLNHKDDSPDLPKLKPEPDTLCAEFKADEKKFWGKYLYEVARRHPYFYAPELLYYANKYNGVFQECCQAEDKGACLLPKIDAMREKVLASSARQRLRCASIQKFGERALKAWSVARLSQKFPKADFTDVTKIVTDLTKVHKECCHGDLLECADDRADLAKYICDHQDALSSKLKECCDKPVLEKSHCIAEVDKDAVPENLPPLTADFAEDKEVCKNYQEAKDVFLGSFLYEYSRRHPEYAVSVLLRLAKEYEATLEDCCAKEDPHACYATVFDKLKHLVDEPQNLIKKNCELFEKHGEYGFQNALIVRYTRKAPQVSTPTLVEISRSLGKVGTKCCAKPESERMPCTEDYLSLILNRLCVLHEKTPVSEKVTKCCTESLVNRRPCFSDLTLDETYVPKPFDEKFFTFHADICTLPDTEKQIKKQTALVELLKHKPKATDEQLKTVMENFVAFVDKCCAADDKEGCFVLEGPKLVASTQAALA
bovine albumin, sequence (P02769 25-607): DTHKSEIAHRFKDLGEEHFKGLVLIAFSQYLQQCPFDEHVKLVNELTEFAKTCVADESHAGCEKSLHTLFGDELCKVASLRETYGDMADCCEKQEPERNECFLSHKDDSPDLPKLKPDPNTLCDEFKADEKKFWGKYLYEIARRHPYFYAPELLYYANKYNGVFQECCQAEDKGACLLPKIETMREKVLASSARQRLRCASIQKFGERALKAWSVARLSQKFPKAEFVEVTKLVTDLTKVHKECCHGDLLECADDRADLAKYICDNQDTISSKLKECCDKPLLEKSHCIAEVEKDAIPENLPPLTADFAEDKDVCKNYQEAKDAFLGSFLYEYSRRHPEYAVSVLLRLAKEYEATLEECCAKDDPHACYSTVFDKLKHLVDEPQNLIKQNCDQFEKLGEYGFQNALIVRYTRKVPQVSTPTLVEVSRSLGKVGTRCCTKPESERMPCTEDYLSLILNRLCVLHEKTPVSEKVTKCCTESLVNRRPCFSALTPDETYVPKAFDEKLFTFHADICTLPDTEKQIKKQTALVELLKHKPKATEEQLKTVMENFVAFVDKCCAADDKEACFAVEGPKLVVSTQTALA

Binder	binding result (horse albumin [1])	Kd (horse albumin [4]) [nM]	koff (horse albumin [4]) [s⁻¹]	Kd (cat albumin [5]) [nM]	koff (cat albumin [5]) [s⁻¹]	further results
B1	binds	–	–	–	–	–
B2	binds	–	–	–	–	binding result (cat albumin [2]): no binding (tested: 1 µg/ml sdAb); binding result (human albumin): no binding (tested: 1 µg/ml sdAb); binding result (bovine albumin): no binding (tested: 1 µg/ml sdAb); binding result (sheep albumin): no binding (tested: 1 µg/ml sdAb); binding result [3]: no binding (tested: 1 µg/ml sdAb); binding result (mouse albumin): no binding (tested: 1 µg/ml sdAb); binding result (chicken ovalbumin): no binding (tested: 1 µg/ml sdAb)
B3	–	13	0.00966	1.2	0.00087	–
B4	–	13	0.00115	31	0.00082	Kd [6]: 189 nM; koff [6]: 0.0249 s⁻¹
B5	–	11	0.00242	–	–	–

Source: publication PMC10862077 (Frontiers in Immunology, 2024)
